This note sets out measurements from the supplement of paper PMC10567573.

± gives the standard deviation.

The nature of the series: protein stability index of a GFP-peptide fusion (GPS, HEK-293T) (PSI 1-6); higher = more stable.
The mark [1] stands for this setting: treatment: DMSO, c terminus: a fixed tail appended.
The mark [2] stands for this setting: treatment: MLN4924 1 uM, 8 h, c terminus: a fixed tail appended.
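Note: 24-mer peptide tiles fused after GFP, lentivirally expressed, FACS-sorted into six equal bins by GFP/DsRed ratio, decoded by Illumina sequencing, PSI is the read-weighted mean bin number.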

With SELERLIVPNSNGVITTTPTPPGQ [JUNB], the protein stability index is 4.65 ± 0.16 under setting [1] and 4.75 ± 0.097 under setting [2].

Consider SENCPKVISCEFAHNSNWYITFQS [LARP4], for which the protein stability index was determined as 2.21 ± 0.23 under setting [1] and 2.08 ± 0.27 under setting [2].

Regarding SFCLEDTECEGDIQKNYECANFGD [LOXL2], the protein stability index under setting [1] was 5.14 ± 0.14 and the protein stability index under setting [2] came out at 5.33 ± 0.2.

In the case of SFGPQPISRLEQCGINANDVKKLE [RAD51], the protein stability index by setting is: under setting [1], 4.27 ± 0.18; under setting [2], 4.37 ± 0.14.

As to SFGWSDRAKVKTDDIARIYQPKRY [FAM98B], the protein stability index under setting [1] was 2.9 ± 0.38 and the protein stability index under setting [2] worked out at 2.99 ± 0.54.

With SGGITHDTFQKELMCFDPDTDKWI [KLHL13], the protein stability index by setting is: under setting [1], 3.94 ± 0.16; under setting [2], 4.17 ± 0.25.

Consider SHLSNGLDPVAETAIRQLTEPSGR [C2CD2L], for which the protein stability index is 4.34 ± 0.31 under setting [1] and 4.58 ± 0.3 under setting [2].

Consider SHRPNMELCRDAAQFRLLSEVEEL [TEKT4], for which the protein stability index runs as follows: under setting [1], 3.82 ± 0.3; under setting [2], 3.72 ± 0.05.

Take SIDFNKDGHIDINEFLEAFRLVEK [PPEF2]: the protein stability index under setting [1] turned out to be 2.88 ± 0.17 and the protein stability index under setting [2] amounted to 3.32 ± 0.4.

On to SIEYDSEPFGKERDAAIKKLATEA [CRY1], for which the protein stability index was found to be 5.18 ± 0.14 under setting [1] and 4.87 ± 0.7 under setting [2].

On to SKLCTSYSHSSTRDGRRDRYSSDT [GOSR1], for which the protein stability index worked out at 4.32 ± 0.25 under setting [1] and 4.18 ± 0.16 under setting [2].

On to SKPSIQPKPLLLPAAPKTQTISSI [ATF6], for which the protein stability index by setting is: under setting [1], 3.88 ± 0.32; under setting [2], 3.82 ± 0.31.

Regarding SLCKALAQKLTIRLSSRYRYGQLI [TRIP13], the protein stability index runs as follows: under setting [1], 3.01 ± 0.47; under setting [2], 3.16 ± 0.66.

Turning to SLEMDSDEDDSEELEEDDGHGAEQ [EHMT1], the protein stability index under setting [1] was 5.45 ± 0.27 and the protein stability index under setting [2] is 5.62 ± 0.38.

As for SLFAFKSFRENWQRAWVRALNEQA [C2CD2L], the protein stability index is, setting by setting: under setting [1], 2.15 ± 0.08; under setting [2], 2.1 ± 0.23.

SLGALDLLGPATGCLLDDGLEGLF [SERTAD1]: the protein stability index runs as follows: under setting [1], 2.6 ± 0.24; under setting [2], 2.57 ± 0.32.

With SLGKARTAQVQKDARIGEAEAKRD [FLOT1], the protein stability index by setting is: under setting [1], 5.31 ± 0.21; under setting [2], 5.12 ± 0.36.

As to SLLQKVSPVAHKHLSRQKIDPLLY [TBC1D10A], the protein stability index reads like this: under setting [1], 2.07 ± 0.19; under setting [2], 2.24 ± 0.2.

In the case of SLQPQQQQQRQRPPRPPPRGTPPR [N4BP2L1], the protein stability index runs as follows: under setting [1], 3.81 ± 0.17; under setting [2], 4.16 ± 0.2.

On to SNDNEERLQVVKLLAKMFGAKDSE [PDS5B], for which the protein stability index reads like this: under setting [1], 3.17 ± 0.3; under setting [2], 3.12 ± 0.4.

As to SNKYGFGYQLSDHTVGVLFNNGAH [PLK2], the protein stability index was 2.61 ± 0.41 under setting [1] and 2.58 ± 0.5 under setting [2].

As for SNSCPAELPNIKREISETEAKALL [TFE3], the protein stability index reads like this: under setting [1], 5.1 ± 0.098; under setting [2], 5.18 ± 0.12.

For the sequence SNVRWDHESVCKYYLCGFCPAELF [LUC7L3], the protein stability index runs as follows: under setting [1], 2.25 ± 0.37; under setting [2], 2.29 ± 0.34.

Consider SPDKDSIMNIEPAILVMHHSMKPH [INTS3], for which the protein stability index by setting is: under setting [1], 3.32 ± 0.3; under setting [2], 3.5 ± 0.2.

For SPDSSMLCSVGASKAVFLWNMDKY [WSB1], the protein stability index amounted to 2.35 ± 0.42 under setting [1] and 2.35 ± 0.26 under setting [2].

With SPEWDTVTPEAKDLINKMLTINPA [CAMK2D], the protein stability index reads like this: under setting [1], 4.24 ± 0.42; under setting [2], 4.54 ± 0.12.

With SPKELKRRNSSSSMSSRLSIYDNV [DLC1], the protein stability index runs as follows: under setting [1], 3.92 ± 0.32; under setting [2], 3.94 ± 0.39.

On to SPPPAPTSSTFGLQDGNLRAPHKE [CHCHD6], for which the protein stability index reads like this: under setting [1], 5.11 ± 0.5; under setting [2], 5.32 ± 0.14.

For the sequence SQSSASQPRLSYAEMAEDYPRYPD [CLCN6], the protein stability index reads like this: under setting [1], 4.83 ± 0.14; under setting [2], 4.86 ± 0.13.

On to SRAALVCRKWNQMMYSAELWRYRT [FBXO39], for which the protein stability index is, setting by setting: under setting [1], 2.45 ± 0.56; under setting [2], 2.15 ± 0.25.

SRCRKLVEYFQQSAVAMYMLYEKQ [ZBED1]: the protein stability index is, setting by setting: under setting [1], 2.44 ± 0.65; under setting [2], 2.13 ± 0.22.

On to SRFISANLPCNKFKNRLVNIMPYE [PTPRD], for which the protein stability index by setting is: under setting [1], 2.13 ± 0.42; under setting [2], 1.98 ± 0.13.

On to SRLTPGGKAAQAGVAVGDWVLSID [PDLIM7], for which the protein stability index amounted to 2.63 ± 0.29 under setting [1] and 3.02 ± 0.61 under setting [2].

Consider SSESSSDSDNSGGGGGGGGGGGGG [ANKRD17], for which the protein stability index by setting is: under setting [1], 5.59 ± 0.27; under setting [2], 5.7 ± 0.12.

Turning to SSHEPCSATCTTGVMSAYAMCVRY [ADAMTSL2], the protein stability index stood at 2.24 ± 0.3 under setting [1] and 2.32 ± 0.19 under setting [2].

Regarding SSHKQGHTSSEYDMLREMFSDSRS [TAF7L], the protein stability index stood at 4.11 ± 0.21 under setting [1] and 4.13 ± 0.26 under setting [2].

Take SSKFYDLFLMDLSEGELGGPSEPG [RHOBTB2]: the protein stability index under setting [1] was 3.19 ± 0.2 and the protein stability index under setting [2] came out at 3.25 ± 0.34.

For the sequence SSQKKDTSSSTVVSTQRSQDHFHV [TIA1], the protein stability index is 4.66 ± 0.21 under setting [1] and 4.64 ± 0.25 under setting [2].

For SSSCAVHDLIFWRDVKKTGFVFGT [RTN3], the protein stability index runs as follows: under setting [1], 2.71 ± 0.52; under setting [2], 2.58 ± 0.52.

On to SSSSSSSSCYPLIPSTPEEVSADD [MAGEA10], for which the protein stability index reads like this: under setting [1], 5.46 ± 0.33; under setting [2], 5.5 ± 0.14.

For the sequence SSTSYRRTFGPPPSLSPGAFSYSS [PRPH], the protein stability index by setting is: under setting [1], 3 ± 0.28; under setting [2], 3.21 ± 0.3.

STAHASAQSLAGGSRRTKEEELQC [TPD52L1]: the protein stability index reads like this: under setting [1], 5.16 ± 0.15; under setting [2], 5.12 ± 0.23.

In turn, STMTSSVQIYNLSQNIQEDDLQQL [ATL3] showed a protein stability index under setting [1] of 4.45 ± 0.13 and a protein stability index under setting [2] of 4.57 ± 0.31.

With STSSSFPSSFPSSSSSSSSSCYPL [MAGEA10], the protein stability index is, setting by setting: under setting [1], 3.73 ± 0.11; under setting [2], 3.82 ± 0.32.

The sequence STSSSTQGDPAFPEMNGNGAVAPM [NOL4L] came in with a protein stability index under setting [1] of 4.93 ± 0.34 and a protein stability index under setting [2] of 5.05 ± 0.054.

In the case of SVAEGYYSHRETVNGSWYIQDLCE [CASP6], the protein stability index is, setting by setting: under setting [1], 3.23 ± 0.22; under setting [2], 3.11 ± 0.35.

SVDDIESETGSTGALETRSLKDHK [C2CD2L]: the protein stability index runs as follows: under setting [1], 5.52 ± 0.3; under setting [2], 5.43 ± 0.27.

Sequence SVIEPVQESSFRSRKIAVEDENDL [MIA2] returned a protein stability index under setting [1] of 5.05 ± 0.49 and a protein stability index under setting [2] of 5.21 ± 0.49.

Regarding SVRGYMMSKQRERQLRRRALHPER [RETREG3], the protein stability index runs as follows: under setting [1], 3.43 ± 0.047; under setting [2], 3.73 ± 0.31.

As for SWSAGLHNRYTENSLRGVILDIHF [FUT8], the protein stability index runs as follows: under setting [1], 2.88 ± 0.67; under setting [2], 2.86 ± 0.73.

With SYQDWQQNLYFNCSSPGVQACSLP [TSPAN10], the protein stability index is, setting by setting: under setting [1], 2.32 ± 0.28; under setting [2], 2.62 ± 0.2.

Regarding TCEDDEDEELGGSSRVPVGGGPEA [ZBTB22], the protein stability index came to 5.49 ± 0.14 under setting [1] and 5.38 ± 0.61 under setting [2].

In the case of TCGVCALELGSTEVLLDHLKAHAE [PLAGL1], the protein stability index under setting [1] stood at 2.78 ± 0.46 and the protein stability index under setting [2] worked out at 2.78 ± 0.42.

Sequence TCLMMDMKACQEDDVRLLCHLTPS [INTS3] showed a protein stability index under setting [1] of 2.69 ± 0.17 and a protein stability index under setting [2] of 2.73 ± 0.33.

As to TDCGKAFLKKSQLTEHKRIHTGKK [ZNF649], the protein stability index is, setting by setting: under setting [1], 3.62 ± 0.5; under setting [2], 3.48 ± 0.42.

Consider TDDRIVVPQRGRSTRVPVASVLI [SPNS1], for which the protein stability index came out at 2.64 ± 0.13 (treatment: DMSO, c terminus: native) and 2.82 ± 0.42 (treatment: MLN4924 1 uM, 8 h, c terminus: native).

Consider TDRGNDNWLIKYDCPMDSSSSRDT [PI4K2A], for which the protein stability index under setting [1] stood at 4.44 ± 0.2 and the protein stability index under setting [2] stood at 4.42 ± 0.075.

TEALILQLFSQIGPCKNCKMIMDT [TIA1]: the protein stability index turned out to be 2.75 ± 0.37 under setting [1] and 2.53 ± 0.41 under setting [2].

TEMAASSQGNFEGNFESLDLAEFA [FUNDC2]: the protein stability index reads like this: under setting [1], 5.21 ± 0.42; under setting [2], 5.1 ± 0.44.

Regarding TGEASENGLEDIDRILERIEDSTG [TCF25], the protein stability index reads like this: under setting [1], 5.47 ± 0.074; under setting [2], 5.46 ± 0.29.

Regarding TGELVGPFVSAMPTPMPHNKGTRF [ZBED2], the protein stability index by setting is: under setting [1], 3.64 ± 0.11; under setting [2], 3.79 ± 0.23.

As to TGLELIAEESNPPLQDFPNSISSD [MIA2], the protein stability index is, setting by setting: under setting [1], 5.2 ± 0.097; under setting [2], 5.33 ± 0.25.

TIRLNISDVNDNAPRFNQQLYTAY [PCDHGC5]: the protein stability index reads like this: under setting [1], 2.41 ± 0.18; under setting [2], 2.37 ± 0.2.

As for TISEFILSEDYNKMTPVKNYQAHQ [WDFY2], the protein stability index under setting [1] worked out at 2.66 ± 0.16 and the protein stability index under setting [2] is 2.78 ± 0.14.

TITIGMFPAVTVEVKSSIAGSSTW [SLC29A1]: the protein stability index runs as follows: under setting [1], 2.58 ± 0.6; under setting [2], 2.4 ± 0.5.

TKDPDVAFHGLSLGLSLTNGLALG [PSD2]: the protein stability index is, setting by setting: under setting [1], 2.46 ± 0.21; under setting [2], 2.43 ± 0.25.

For TKEEGLALAREFSCPFFETSAAYR [RIT1], the protein stability index runs as follows: under setting [1], 3.15 ± 0.29; under setting [2], 3.13 ± 0.15.

For TKELDQWIEQLNECKQLSESQVKS [PPP2CA], the protein stability index worked out at 4.71 ± 0.094 under setting [1] and 4.69 ± 0.12 under setting [2].

In the case of TLYRPEEGYCQAQAPIAAVLLMHM [TBC1D10A], the protein stability index reads like this: under setting [1], 2.52 ± 0.42; under setting [2], 2.43 ± 0.45.

TMDNKKGRRYEAVKWMVVFAIGVC [CLCN6]: the protein stability index came to 2.58 ± 0.35 under setting [1] and 2.64 ± 0.82 under setting [2].

With TNLTWDQVITLDQVLDEVIPIHGK [TENT5D], the protein stability index came out at 2.47 ± 0.16 under setting [1] and 2.61 ± 0.3 under setting [2].

As for TPTPFFHTFAGDDCQAGLNFADED [WAS], the protein stability index under setting [1] came to 4.86 ± 0.25 and the protein stability index under setting [2] worked out at 5 ± 0.07.
